From IntAct's records for PubMed 23273425 come the findings set out here.

B1: Splicing factor 1 (Homo sapiens), Q15637 (parent)
chain: MATGANATPLDFPSKKRKRSRWNQDTMEQKTVIPGMPTVIPPGLTREQERAYIVQLQIEDLTRKLRTGDLGIPPNPEDRSPSPEPIYNSEGKRLNTREFRTRKKLEEERHNLITEMVALNPDFKPPADYKPPATRVSDKVMIPQDEYPEINFVGLLIGPRGNTLKNIEKECNAKIMIRGKGSVKEGKVGRKDGQMLPGEDEPLHALVTANTMENVKKAVEQIRNILKQGIETPEDQNDLRKMQLRELARLNGTLREDDNRILRPWQSSETRSITNTTVCTKCGGAGHIASDCKFQRPGDPQSAQDKARMDKEYLSLMAELGEAPVPASVGSTSGPATTPLASAPRPAAPANNPPPPSLMSTTQSRPPWMNSGPSESRPYHGMHGGGPGGPGGGPHSFPHPLPSLTGGHGGHPMQHNPNGPPPPWMQPPPPPMNQGPHPPGHHGPPPMDQYLGSTPVGSGVYRLHQGKGMMPPPPMGMMPPPPPPPSGQPPPPPSGPLPPWQQQQQQPPPPPPPSSSMASSTPLPWQQNTTTTTTSAGTGSIPPWQQQQAAAAASPGAPQMQGNPTMVPLPPGVQPPLPPGAPPPPPPPPPGSAGMMYAPPPPPPPPMDPSNFVTMMGMGVAGMPPFGMPPAPPPPPPQN

The experiment covers variants of B1. To be noted: with U2AF2, P26368.
Chain of U2AF2, P26368 (P26368 whole entry): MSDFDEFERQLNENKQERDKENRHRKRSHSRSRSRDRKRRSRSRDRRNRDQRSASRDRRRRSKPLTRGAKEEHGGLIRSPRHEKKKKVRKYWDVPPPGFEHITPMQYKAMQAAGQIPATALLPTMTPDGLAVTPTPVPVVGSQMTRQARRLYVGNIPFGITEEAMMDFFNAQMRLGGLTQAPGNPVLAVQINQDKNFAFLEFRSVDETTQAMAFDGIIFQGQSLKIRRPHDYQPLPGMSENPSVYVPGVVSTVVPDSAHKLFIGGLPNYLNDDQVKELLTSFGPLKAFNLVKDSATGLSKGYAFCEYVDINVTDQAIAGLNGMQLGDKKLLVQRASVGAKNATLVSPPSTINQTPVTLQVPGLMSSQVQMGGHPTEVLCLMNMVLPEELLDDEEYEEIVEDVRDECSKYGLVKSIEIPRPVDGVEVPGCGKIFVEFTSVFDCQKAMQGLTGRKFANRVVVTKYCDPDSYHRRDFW
For the variant I40R;I53R, the “effect of a mutation on the interaction” value is “decreasing interaction strength”.
Regarding R46D, the “effect of a mutation on the interaction” value is “decreasing interaction strength”.
For S80A;S82A, the “effect of a mutation on the interaction” value is recorded as “decreasing interaction strength”.
As for R93E;R97E;R100E, the entry is “decreasing interaction strength”; as for W22A, “disrupting interaction strength”.
